Measured values published in article PMC5770381.

Legend:
Assay in all cases: purified protein
[1] = test system: C[C@@H](O)[C@H]1C(=O)N2C(C(=O)O)=C(S[C@@H]3CN[C@H](C(=O)N(C)C)C3)[C@H](C)[C@H]12; conditions: Tris-HCl pH 7.4, 35 °C, 10-200 μM substrate
[2] = test system: CO/N=C(\C(=O)N[C@@H]1C(=O)N2C(C(=O)O)=C(COC(C)=O)CS[C@H]12)c1csc(N)n1; conditions: Tris-HCl pH 7.4, 35 °C, 10-100 μM substrate
[3] = test system: CC1(C)S[C@@H]2[C@H](NC(=O)[C@H](N)c3ccc(O)cc3)C(=O)N2[C@H]1C(=O)O; conditions: Tris-HCl pH 7.4, 35 °C, 20-500 μM substrate

Question: With “ElBla2 (Erythrobacter litoralis HTCC2594)” as the substance, how does the Km [1] read?
Answer: 19 ± 6 µM

Question: And the kcat [1]?
Answer: 2.1 ± 0.2 s⁻¹

Question: And the kcat/Km [1]?
Answer: 110000 M⁻¹ s⁻¹

Question: And the Km [2]?
Answer: 13 ± 4 µM

Question: What about the kcat [2] of the same substance?
Answer: 0.9 ± 0.1 s⁻¹

Question: And the kcat/Km [2]?
Answer: 70000 M⁻¹ s⁻¹

Question: And the Km [3]?
Answer: 39 ± 9 µM

Question: What about the kcat [3] of the same substance?
Answer: 1.4 ± 0.1 s⁻¹

Question: What about the kcat/Km [3] of the same substance?
Answer: 40000 M⁻¹ s⁻¹
